Here are results for one molecule from article PMC8892280 (Proceedings of the National Academy of Sciences of the …, 2022).

This experiment deals with full-length human LRRK2 (leucine-rich repeat kinase 2) (human, UniProt Q5S007). The experiment in a line: MST.
full-length human LRRK2 (leucine-rich repeat kinase 2), sequence (Q5S007 whole entry): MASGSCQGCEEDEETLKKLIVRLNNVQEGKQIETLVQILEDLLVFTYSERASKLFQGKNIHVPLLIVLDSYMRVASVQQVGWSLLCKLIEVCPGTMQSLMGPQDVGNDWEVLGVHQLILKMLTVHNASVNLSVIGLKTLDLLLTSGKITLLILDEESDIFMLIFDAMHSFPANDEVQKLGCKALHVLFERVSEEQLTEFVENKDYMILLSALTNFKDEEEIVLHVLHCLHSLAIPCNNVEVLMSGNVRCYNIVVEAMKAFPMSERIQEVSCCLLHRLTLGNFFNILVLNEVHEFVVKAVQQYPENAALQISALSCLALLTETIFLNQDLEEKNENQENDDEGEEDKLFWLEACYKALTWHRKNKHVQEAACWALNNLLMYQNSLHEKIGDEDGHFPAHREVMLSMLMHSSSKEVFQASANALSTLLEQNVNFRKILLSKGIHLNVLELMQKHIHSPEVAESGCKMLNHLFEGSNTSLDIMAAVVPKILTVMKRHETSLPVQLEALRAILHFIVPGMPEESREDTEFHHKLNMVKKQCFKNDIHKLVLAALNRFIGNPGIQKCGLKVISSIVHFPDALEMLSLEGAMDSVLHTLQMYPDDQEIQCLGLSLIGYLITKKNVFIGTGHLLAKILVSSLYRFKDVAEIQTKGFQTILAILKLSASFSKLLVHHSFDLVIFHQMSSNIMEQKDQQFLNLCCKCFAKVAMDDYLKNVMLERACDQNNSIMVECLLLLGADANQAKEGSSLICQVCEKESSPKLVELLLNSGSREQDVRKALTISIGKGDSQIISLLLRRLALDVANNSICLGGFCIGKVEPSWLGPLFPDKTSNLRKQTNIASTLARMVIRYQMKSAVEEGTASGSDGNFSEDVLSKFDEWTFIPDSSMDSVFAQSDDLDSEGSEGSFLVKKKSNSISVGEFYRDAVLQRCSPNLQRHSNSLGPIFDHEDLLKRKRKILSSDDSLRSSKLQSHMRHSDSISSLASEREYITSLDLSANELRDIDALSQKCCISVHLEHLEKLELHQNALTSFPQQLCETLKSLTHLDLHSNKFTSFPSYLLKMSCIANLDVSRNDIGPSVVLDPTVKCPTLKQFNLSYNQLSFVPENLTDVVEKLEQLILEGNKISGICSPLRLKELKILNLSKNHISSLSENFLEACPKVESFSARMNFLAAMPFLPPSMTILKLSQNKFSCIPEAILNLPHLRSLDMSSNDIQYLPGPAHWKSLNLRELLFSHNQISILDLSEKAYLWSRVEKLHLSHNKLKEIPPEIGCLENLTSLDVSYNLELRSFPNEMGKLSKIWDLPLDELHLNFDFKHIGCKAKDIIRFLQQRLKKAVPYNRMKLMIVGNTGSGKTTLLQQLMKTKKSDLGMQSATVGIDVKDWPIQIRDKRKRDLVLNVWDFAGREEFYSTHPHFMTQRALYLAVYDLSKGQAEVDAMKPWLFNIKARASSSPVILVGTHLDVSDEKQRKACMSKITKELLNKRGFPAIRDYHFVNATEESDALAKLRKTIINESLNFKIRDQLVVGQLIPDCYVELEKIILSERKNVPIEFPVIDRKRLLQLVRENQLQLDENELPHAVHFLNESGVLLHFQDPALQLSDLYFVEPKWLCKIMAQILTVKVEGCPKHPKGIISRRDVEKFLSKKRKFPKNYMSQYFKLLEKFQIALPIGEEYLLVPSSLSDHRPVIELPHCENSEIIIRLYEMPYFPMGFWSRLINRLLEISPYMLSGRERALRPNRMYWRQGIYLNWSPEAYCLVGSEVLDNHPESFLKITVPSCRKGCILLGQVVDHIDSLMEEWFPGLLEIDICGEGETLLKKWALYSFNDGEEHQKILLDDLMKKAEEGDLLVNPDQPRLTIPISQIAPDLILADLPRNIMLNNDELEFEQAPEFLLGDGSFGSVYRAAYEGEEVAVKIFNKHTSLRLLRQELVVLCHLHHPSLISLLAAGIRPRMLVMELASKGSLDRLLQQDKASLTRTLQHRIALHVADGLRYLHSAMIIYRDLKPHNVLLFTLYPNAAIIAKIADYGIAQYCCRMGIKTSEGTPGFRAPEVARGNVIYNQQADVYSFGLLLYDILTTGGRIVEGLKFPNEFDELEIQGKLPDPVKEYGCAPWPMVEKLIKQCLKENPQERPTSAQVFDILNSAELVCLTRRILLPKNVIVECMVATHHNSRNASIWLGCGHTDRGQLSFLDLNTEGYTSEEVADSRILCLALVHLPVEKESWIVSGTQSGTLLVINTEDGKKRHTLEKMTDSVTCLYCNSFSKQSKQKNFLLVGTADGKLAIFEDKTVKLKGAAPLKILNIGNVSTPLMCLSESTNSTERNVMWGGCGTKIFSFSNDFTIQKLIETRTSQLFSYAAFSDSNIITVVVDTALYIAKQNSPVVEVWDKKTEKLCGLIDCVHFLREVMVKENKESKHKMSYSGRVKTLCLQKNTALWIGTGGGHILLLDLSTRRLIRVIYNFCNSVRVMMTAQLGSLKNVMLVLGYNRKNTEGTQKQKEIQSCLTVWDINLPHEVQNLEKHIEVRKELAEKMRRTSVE

B1: m-TAMRA-labeled Nb42 (VHH)
VHH: QVQLVESGGGLVQAGGSLRLSCAASGDVNYAVGWFRQAPRKEREFVAAINWRGDNTDYTDSVKGRFTISRDNAKNTVYLQMNSLKPEDTAVYYCAAKSAPYWYSDIAPDYWGQGTQVTVSS
With B1, binding was put at a Kd of 94 ± 30 nM.
